Assay results taken from the supplement of paper PMC9112550, “Optimization of the antimicrobial peptide Bac7 by deep mutational scanning” (BMC Biology, 2022).

System: Escherichia coli TOP10
Assay: shrunken log2 fold change of peptide-encoding DNA abundance (4.5 h post-induction vs induction); higher = less antimicrobial activity (less host growth inhibition)
Conditions: time post-induction: 4.5 h; library: site-saturation at positions 5, 18, 19, 20
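Also: peptides expressed intracellularly from a pBAD plasmid library in pooled LB shake-flask culture, induced with 0.3% L-arabinose, DNA abundance read by NGS, three biological replicates, DESeq2 with apeglm shrinkage.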

| Sequence | shrunken log2 fold change |
| --- | --- |
| RRIRVRPPRLPRPRPRPGQSPRP | 0.0938 |
| RRIRVRPPRLPRPRPRPGSEPRP | 0.168 |
| RRIRVRPPRLPRPRPRPGSLPRP | -0.363 |
| RRIRVRPPRLPRPRPRPGTSPRP | -0.073 |
| RRIRVRPPRLPRPRPRPGVVPRP | 0.43 |
| RRIRVRPPRLPRPRPRPGWQPRP | 0.545 |
| RRIRVRPPRLPRPRPRPGYKPRP | -0.222 |
| RRIRVRPPRLPRPRPRPHAPPRP | 0.26 |
| RRIRVRPPRLPRPRPRPHAYPRP | -0.473 |
| RRIRVRPPRLPRPRPRPHCTPRP | -1.21 |
| RRIRVRPPRLPRPRPRPHFAPRP | 0.0941 |
| RRIRVRPPRLPRPRPRPHFHPRP | 3.23 |
| RRIRVRPPRLPRPRPRPHFKPRP | -0.0898 |
| RRIRVRPPRLPRPRPRPHFLPRP | 0.187 |
| RRIRVRPPRLPRPRPRPHGAPRP | -0.0881 |
| RRIRVRPPRLPRPRPRPHGEPRP | 0.0918 |
| RRIRVRPPRLPRPRPRPHGFPRP | -0.017 |
| RRIRVRPPRLPRPRPRPHGVPRP | 0.0673 |
| RRIRVRPPRLPRPRPRPHHLPRP | -0.24 |
| RRIRVRPPRLPRPRPRPHHMPRP | -0.26 |
| RRIRVRPPRLPRPRPRPHHWPRP | -0.157 |
| RRIRVRPPRLPRPRPRPHHYPRP | 0.13 |
| RRIRVRPPRLPRPRPRPHINPRP | -0.524 |
| RRIRVRPPRLPRPRPRPHISPRP | 0.0648 |
| RRIRVRPPRLPRPRPRPHKFPRP | 0.0807 |

| Sequence | shrunken log2 fold change |
| --- | --- |
| RRIRVRPPRLPRPRPRPHMAPRP | -0.339 |
| RRIRVRPPRLPRPRPRPHMFPRP | -0.199 |
| RRIRVRPPRLPRPRPRPHMYPRP | -0.509 |
| RRIRVRPPRLPRPRPRPHNPPRP | -0.272 |
| RRIRVRPPRLPRPRPRPHPTPRP | 0.23 |
| RRIRVRPPRLPRPRPRPHQIPRP | 0.12 |
| RRIRVRPPRLPRPRPRPHQQPRP | -0.0863 |
| RRIRVRPPRLPRPRPRPHQTPRP | -0.443 |
| RRIRVRPPRLPRPRPRPHRFPRP | 0.0259 |
| RRIRVRPPRLPRPRPRPHSKPRP | -0.496 |
| RRIRVRPPRLPRPRPRPHTPPRP | -0.271 |
| RRIRVRPPRLPRPRPRPHTWPRP | -0.351 |
| RRIRVRPPRLPRPRPRPIAGPRP | 0.0142 |
| RRIRVRPPRLPRPRPRPIAQPRP | -0.061 |
| RRIRVRPPRLPRPRPRPIDKPRP | -0.471 |
| RRIRVRPPRLPRPRPRPIEHPRP | -0.168 |
| RRIRVRPPRLPRPRPRPIHVPRP | -0.155 |
| RRIRVRPPRLPRPRPRPIIRPRP | -0.199 |
| RRIRVRPPRLPRPRPRPILGPRP | 0.0313 |
| RRIRVRPPRLPRPRPRPILVPRP | -0.00597 |
| RRIRVRPPRLPRPRPRPIMNPRP | -0.752 |
| RRIRVRPPRLPRPRPRPINVPRP | -0.342 |
| RRIRVRPPRLPRPRPRPIPAPRP | 0.000426 |
| RRIRVRPPRLPRPRPRPIQCPRP | 0.078 |
| RRIRVRPPRLPRPRPRPIQWPRP | 0.138 |

| Sequence | shrunken log2 fold change |
| --- | --- |
| RRIRVRPPRLPRPRPRPIRCPRP | -0.0498 |
| RRIRVRPPRLPRPRPRPIRQPRP | -0.294 |
| RRIRVRPPRLPRPRPRPIRYPRP | 0.146 |
| RRIRVRPPRLPRPRPRPIYQPRP | -0.27 |
| RRIRVRPPRLPRPRPRPKACPRP | 0.153 |
| RRIRVRPPRLPRPRPRPKAQPRP | 0.107 |
| RRIRVRPPRLPRPRPRPKAYPRP | 0.0199 |
| RRIRVRPPRLPRPRPRPKCRPRP | 0.224 |
| RRIRVRPPRLPRPRPRPKDEPRP | -0.205 |
| RRIRVRPPRLPRPRPRPKDFPRP | 0.123 |
| RRIRVRPPRLPRPRPRPKEAPRP | -0.0421 |
| RRIRVRPPRLPRPRPRPKEDPRP | 0.0522 |
| RRIRVRPPRLPRPRPRPKEIPRP | 0.104 |
| RRIRVRPPRLPRPRPRPKEMPRP | -0.131 |
| RRIRVRPPRLPRPRPRPKFNPRP | -0.42 |
| RRIRVRPPRLPRPRPRPKFPPRP | 0.102 |
| RRIRVRPPRLPRPRPRPKHEPRP | -0.0072 |
| RRIRVRPPRLPRPRPRPKIFPRP | -0.00445 |
| RRIRVRPPRLPRPRPRPKKPPRP | -0.0463 |
| RRIRVRPPRLPRPRPRPKKTPRP | -0.0604 |
| RRIRVRPPRLPRPRPRPKLGPRP | 0.173 |
| RRIRVRPPRLPRPRPRPKMDPRP | -0.093 |
| RRIRVRPPRLPRPRPRPKMQPRP | 0.0937 |
| RRIRVRPPRLPRPRPRPKNEPRP | 0.00832 |
| RRIRVRPPRLPRPRPRPKNPPRP | -0.17 |
